From patent US20220267469A1 (LIPUM, published 2022)

T1: Mouse BSSL, recombinant (mouse, UniProt Q64285 21-599)
T1 construct: Bought (R&D Systems, Cat. no 5658-CE); also called mBSSL; murine BSSL
T1 sequence: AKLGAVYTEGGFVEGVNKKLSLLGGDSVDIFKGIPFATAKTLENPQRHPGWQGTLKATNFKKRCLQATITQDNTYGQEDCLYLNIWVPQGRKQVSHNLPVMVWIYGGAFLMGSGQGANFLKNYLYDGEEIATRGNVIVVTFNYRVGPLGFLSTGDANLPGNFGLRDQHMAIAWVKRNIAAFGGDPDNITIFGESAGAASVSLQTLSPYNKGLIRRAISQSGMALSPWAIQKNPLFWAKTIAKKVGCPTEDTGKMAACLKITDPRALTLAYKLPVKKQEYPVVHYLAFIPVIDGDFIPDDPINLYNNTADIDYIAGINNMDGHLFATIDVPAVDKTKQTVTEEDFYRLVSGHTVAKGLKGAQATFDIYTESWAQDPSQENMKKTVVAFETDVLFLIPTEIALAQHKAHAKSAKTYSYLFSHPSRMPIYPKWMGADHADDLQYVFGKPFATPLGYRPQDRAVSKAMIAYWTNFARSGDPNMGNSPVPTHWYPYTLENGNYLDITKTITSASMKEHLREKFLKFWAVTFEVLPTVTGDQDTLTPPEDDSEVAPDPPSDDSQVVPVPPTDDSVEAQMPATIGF

T2: Human BSSL (bile salt-stimulated lipase), native (human, UniProt P19835 21-753)
T2 construct: Native full-length protein purified from human milk (Astra Hässle AB); also called hBSSL; non-biotinylated human BSSL
T2 sequence: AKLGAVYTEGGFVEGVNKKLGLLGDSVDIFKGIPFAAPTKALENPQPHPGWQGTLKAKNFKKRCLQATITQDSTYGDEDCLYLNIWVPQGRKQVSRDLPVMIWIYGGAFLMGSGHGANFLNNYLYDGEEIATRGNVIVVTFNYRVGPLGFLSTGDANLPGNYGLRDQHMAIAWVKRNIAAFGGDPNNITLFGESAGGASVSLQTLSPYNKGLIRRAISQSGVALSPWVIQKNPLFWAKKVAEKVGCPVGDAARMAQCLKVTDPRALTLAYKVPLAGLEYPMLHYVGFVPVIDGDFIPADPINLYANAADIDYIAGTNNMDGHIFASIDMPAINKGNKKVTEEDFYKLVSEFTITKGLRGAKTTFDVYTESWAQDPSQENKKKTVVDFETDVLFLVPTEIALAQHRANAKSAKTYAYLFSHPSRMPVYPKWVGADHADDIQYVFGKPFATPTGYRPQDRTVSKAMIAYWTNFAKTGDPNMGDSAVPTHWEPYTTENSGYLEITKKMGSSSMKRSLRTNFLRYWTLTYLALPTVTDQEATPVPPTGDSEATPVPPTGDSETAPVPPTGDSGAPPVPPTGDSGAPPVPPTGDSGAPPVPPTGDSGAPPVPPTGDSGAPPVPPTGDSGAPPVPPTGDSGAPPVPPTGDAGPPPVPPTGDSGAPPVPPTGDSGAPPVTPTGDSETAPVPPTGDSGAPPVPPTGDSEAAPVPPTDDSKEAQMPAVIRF


What was measured:
[1] = biological target: T1, Mouse BSSL, recombinant; assay: SPR steady state, hIgG4 S228P captured by anti-Fab
Experimental: (§1) Kinetic parameters of the hIgG4 S228P clones were determined by SPR using BIACORE® T200 (GE Healthcare). Single cycle kinetics was used to measure the affinity of the purified hIgG4 molecules to human and mouse BSSL. An anti-Fab antibody (GE Healthcare, #28958325) was immobilized on a CM5 S sensor chip by primary amine coupling using NHS-EDC chemistry. hIgG4 was captured by the anti-Fab antibody, and subsequently, five different concentrations of hBSSL (1:5 dilutions starting from 50 nM) or mBSSL (1:5 dilutions starting from 500 nM) were injected over the surface. The sensor chip surface was regenerated with 10 mM glycine-HCl pH 2.1. For binding to human BSSL, single cycle kinetic data was fitted to a 1:1 binding model and kinetic parameters were retrieved using software BlAevaluation. For mouse BSSL, a steady state analysis was performed by plotting the response level at equilibrium against each concentration, and KD values were retrieved by the BlAevalution software.

[2] = biological target: T2, Human BSSL (bile salt-stimulated …); assay: SPR single cycle kinetics, hIgG4 S228P captured by anti-Fab
Experimental: as §1

Binder	Kd [1] [nM]	Kd [2] [nM]
S-SL048-13 hIgG4 S228P (antibody, V domains shown, Tested as human IgG4 S228P) VH: QVQLVQSGAEVKKPGASVKVSCKASGYTFTSYNMHWVRQAPGQGLEWIGVINPSDGATSYTQKFQGRVTMTRDTSTSTVYMELSSLRSEDTAVYYCARDYYGSSPLGYWGQGTLVTVSS VL: DIQMTQSPSSLSASVGDRVTITCSASPSISYLNWYQQKPGKAPKLLIYATSSLASGVPSRFSGSGSGTDFTLTISSLQPEDFATYYCQQRSSSPTFGQGTKLEIK	57	0.9
S-SL048-110 hIgG4 S228P (antibody, V domains shown, Tested as human IgG4 S228P) VH: QVQLVQSGAEVKKPGASVKVSCKASGYTFTSYNMHWVRQAPGQGLEWMGVINPGDGATSYNQKFKGRVTMTRDTSTSTVYMELSSLRSEDTAVYYCARDYYGSSPLGYWGQGTLVTVSS VL: DIQMTQSPSSLSASVGDRVTITCSASQSISYLHWYQQKPGKAPKLLIYAASRLASGVPSRFSGSGSGTDFTLTISSLQPEDFATYYCHQRSSTPTFGQGTKLEIK	168	5.9
S-SL048-47 hIgG4 S228P (antibody, V domains shown, Tested as human IgG4 S228P) VH: QVQLVQSGAEVKKPGASVKVSCKASGYTFTSYNMHWVRQAPGQGLEWIGVINPGGGYTSYTQKFQGRVTMTRDTSTSTVYMELSSLRSEDTAVYYCARDYYGSSPLGYWGQGTLVTVSS VL: DIQMTQSPSSLSASVGDRVTITCSASPSISYMNWYQQKPGKAPKLLIYATSRLQSGVPSRFSGSGSGTDFTLTISSLQPEDFATYYCQQRSSTPTFGQGTKLEIK		8.5
S-SL048-89 hIgG4 S228P (antibody, V domains shown, Tested as human IgG4 S228P) VH: QVQLVQSGAEVKKPGASVKVSCKASGYTFTSYNMHWVRQAPGQGLEWMGVINPSSGSTSYTQKFQGRVTMTRDTSTSTVYMELSSLRSEDTAVYYCARDYYGSSPLGYWGQGTLVTVSS VL: DIQMTQSPSSLSASVGDRVTITCRASPSISYLNWYQQKPGKAPKLLIYATSRLPSGVPSRFSGSGSGTDFTLTISSLQPEDFATYYCQQRSSNPTFGQGTKLEIK		6
S-SL048-86 hIgG4 S228P (antibody, V domains shown, Tested as human IgG4 S228P) VH: QVQLVQSGAEVKKPGASVKVSCKASGYTFTSYNMHWVRQAPGQGLEWMGVINPGDGATSYAQKFQGRVTMTRDTSTSTVYMELSSLRSEDTAVYYCARDYYGSSPLGYWGQGTLVTVSS VL: DIQMTQSPSSLSASVGDRVTITCRASQSISYLHWYQQKPGKAPKLLIYATSSLQSGVPSRFSGSGSGTDFTLTISSLQPEDFATYYCHQRSSYPTFGQGTKLEIK	167	6.8
S-SL048-134 hIgG4 S228P (antibody, V domains shown, Tested as human IgG4 S228P) VH: QVQLVQSGAEVKKPGASVKVSCKASGYTFTSYNMHWVRQAPGQGLEWMGVINPSDGATSYAQKFKGRVTMTRDTSTSTVYMELSSLRSEDTAVYYCARDYYGSSPLGYWGQGTLVTVSS VL: DIQMTQSPSSLSASVGDRVTITCRASPSISYLNWYQQKPGKAPKLLIYATSKLPSGVPSRFSGSGSGTDFTLTISSLQPEDFATYYCQQRSSYPTFGQGTKLEIK		1.8
S-SL048-105 hIgG4 S228P (antibody, V domains shown, Tested as human IgG4 S228P) VH: QVQLVQSGAEVKKPGASVKVSCKASGYTFTSYNMHWVRQAPGQGLEWMGVINPSDGATSYAQKFQGRVTMTRDTSTSTVYMELSSLRSEDTAVYYCARDYYGSSPLGYWGQGTLVTVSS VL: DIQMTQSPSSLSASVGDRVTITCSASQSISYLHWYQQKPGKAPKLLIYAASKLPSGVPSRFSGSGSGTDFTLTISSLQPEDFATYYCHQRSSYPTFGQGTKLEIK	237	6
S-SL048-75 hIgG4 S228P (antibody, V domains shown, Tested as human IgG4 S228P) VH: QVQLVQSGAEVKKPGASVKVSCKASGYTFTSYNMHWVRQAPGQGLEWMGVIYPGGGYTSYAQKFKGRVTMTRDTSTSTVYMELSSLRSEDTAVYYCARDYYGSSPLGYWGQGTLVTVSS VL: DIQMTQSPSSLSASVGDRVTITCRASQSISYLNWYQQKPGKAPKLLIYATSNLQSGVPSRFSGSGSGTDFTLTISSLQPEDFATYYCHQRSSSPTFGQGTKLEIK	164	
